{"source": "paper doi:10.1101/813527", "key": {"[1]": {"biological_target": "GFP-S14D S26D-SAP (phosphomimetic SAF-A SAP domain) (UniProt Q00839)", "experiment": "EMSA"}, "[2]": {"biological_target": "GFP-WT-SAP (SAF-A SAP domain) (UniProt Q00839)", "experiment": "EMSA"}}}
{"sequence": "AATTCAGAAAATAATAAAATAAAACTAGCTATTTTATATTTTTTC (double strand) [AT-rich SAR DNA]", "values": [{"measurement": "Kd", "setting": "[1]", "value": "> 75", "unit": "µM"}, {"measurement": "Kd", "setting": "[2]", "value": 16.5, "unit": "µM"}]}
